Laboratory results published in US20200362021A1 (PHANES THERAPEUTICS, published 2020).
Residue numbers refer to the chain shown, from its start. No end group written: not given here. *: point of attachment. Biotin = O=C1N[C@H]2[C@H](CS[C@H]2CCCCC(=O)*)N1

T1: APL17-Biotin
T1 peptide: KFRRQRPRLSHKGPMPF-biotin

T2: pyr-apelin-13-biotin (pE-RPRLSHKGPMPF-biotin) (N-terminal pyroglutamate (pE); C-terminal biotin)
T2 construct: also called pyrAPL13-Biotin
T2 peptide: ERPRLSHKGPMPF

T3: Biotin-APL17
T3 peptide: Biotin-KFRRQRPRLSHKGPMPF

B1: anti-apelin mAb C9 (antibody, V domains shown)
VH: QEQLEESGGDLVKPEGSLTLTCTASGFSFSSSYWICWVRQAPGKGLEWIACIYQSGDGRTWYASWAEGRFTISKTSPTTVTLQMASLTAADTATYFCARCPHNTYSHFDLWGPSTLVTVSS
VL: DIVMTQTPASVEAAVGGTVTIKCQASQSINSWLSWYQQKPGQPPKPLIYGASNLASGVPSRFKGSGSGTQFTLTISDLECADAATYSCLGYYYSSYNSVGFWAFGGGTEVVVK
notes: recombinant rabbit IgG made in HEK293 cells
B2: anti-apelin mAb C10 (antibody, V domains shown)
VH: QSLEESGGRLVTPGGSLTLTCTVSGIDLNSYAIDWVRQAPGKGLEWIGVIAPSGTTYYPTWAKGRFTISKTSTTVDLKVTGLTTEDTATYFCAAYPIDPGSNIWGPGTLVTVSS
VL: DPVLTQTPSSVSAAVGGTATIGCQSSESVDYGNQLSWYQQKPGQPPKRLAYYVSILDAGVPSRFKGSGSGTQFTLTISDLECDDAATYYCQGGYISNLYPFGGGTEVVVQ
notes: as for B1
B3: anti-apelin mAb C12 (antibody, V domains shown)
VH: QSLEESGGRLVTPGGSLTLTCTVSGIDLSSYAIDWVRQAPGKGLEWIGVIAPSSTTYYPTWAKGRFTISKTSSTTVDLKVIGLTTEDTATYFCAAYPIDPGSNVWGPGTLVTVSS
VL: B2 VL with A19V, A50T
notes: as for B1
B4: anti-apelin mAb C11 (antibody, V domains shown)
VH: QSLEESGGRLVSPGGSLTLTCTVSGIDLSSHAMDWVRQAPGKGLEWIGVIAPNDATYYPTWARGRFTISKTSTTVGLKMTRLTTEDTATYFCAAYPIDAGANVWGPGTLVTVSS
VL: DPMLTQTASPVSAHVGGTVTINCQSSESVDYNNQLSWYQQKPGQPPKRLMYYVSTLDSGVPSRFKGSGSGTQFSLTISDLECDDAGTYYCQGGYISNLYPFGGGTEVVVK
notes: as for B1
B5: anti-apelin mAb C16 (antibody, V domains shown)
VH: QSLEESGGRLVTPGGSLTLTCTVSGIDLNSYAMDWVRQAPGKGLEWIGVIAPNHYTYYPTWARGRFTISKTSTTVDLKMTRLTTEDTATYFCATYPIESGSNIWGPGTLVIVSS
VL: B4 VL with M3V, A8P, P10S, H14A, N22G, D30G, Y31M
notes: as for B1
B6: anti-apelin mAb C14 (antibody, V domains shown)
VH: B4 VH with L3P, S12T, T22K, V23I, I26V, S30N, H31Y, F66L, G76D, A99V
VL: B4 VL with H14A
notes: as for B1
B7: anti-apelin mAb C22 (antibody, V domains shown)
VH: B5 VH with S30N, R81S, S99T
VL: DPVLTQTPSSVSAAVGGTVTISCQSSESVDMNNQLSWYHQKSGQPPKRLMYYVSTLDSGVPSRFKGSGSGTQFTLTISGVQCDDAGTYYCQGGYISNLYPFGGGTEVVVK
notes: as for B1
B8: anti-apelin mAb C4 (antibody, V domains shown)
VH: LEQSGGGAEGGLVKPGGSLELCCKASGFTLSSSYWICWVRQAPGKGLEWIGCIHYGSSGTAYYASWVNGRFTLSRDIDQSTGCLQLNSLTAADTAMYYCARFLSDMYYYNLWGPGTLVTVSS
VL: QVLTQTPASVSAAVGGTVTINCQASQSIYNNNQLSWYQQKPGQPPKLLIYYASTLASGVSSRFKGSGSGTQFTLTISGVQCDDAATYYCQGQFNCRSADCHAFGGGTEVVVK
notes: as for B1
B9: anti-apelin mAb C5 (antibody, V domains shown)
VH: QSVEESGGRLVTPGTPLTLTCTVSGFSLSGAWMNWVRQAPGKGLEWIGVVSSDDNIYYADWAKGRFTISKTSTTVDLKLTSPTTEDTATYFCARNLGTIWGPGTLVTVSS
VL: QVLTQTESPVSAAVGGTVTINCQSSQSVWSNYLSWFQQKPGQPPKVLIYGTSKLPSGVPSRFSGSGSGTEFTLTINDLECDDAATYYCAGGYSGHIYSFGGGTEVVVK
notes: as for B1
B10: anti-apelin mAb C27 (antibody, V domains shown)
VH: QSVEESGGRLVTPGGSLTLTCTVSGIDLINAWMNWVRQAPGKGLEWIGTTTDDDTIYYANWAKGRFTISRTSTTVDLKVTSLTSEDTATYFCSKGRIWGPGTLVTVSL
VL: QVLTQTPASVSAAVGGTVTINCQASQSVYDGNWLCWYQQKPGQPPKRLIYKASTLESGVPSRFKGSGSGTQFTLTISDLECDDAATYYCQGGFTSNIYPFAGGTEVVVK
notes: as for B1
B11: C13 (antibody, V domains shown)
VH: QSLEESGGRLAKPGETLTLTCTVSGIDLNSHAVDWVRQAPGKGLEWIGVIGPGGNTYYASWAKGRFTISKTSSTTVDLKMTSLTAEDTATFFCATYPIYSGDNIWGPGTLVTVSS
VL: DPVLTQTPPSVSAAVGGTVTINCQSSESVDNNNQLSWYQQKVGQPPKRLMYYASTLDSGVPSRFKGGGSGTHFTLTITDLECDDAATYYCQGGTATNIYPFGGGTEVVVK
notes: recombinant rabbit mAb; also called anti-apelin mAb C13
B12: anti-apelin mAb C17 (antibody, V domains shown)
VH: QSVEESGGRLVKPDETLTLTCAVSGIDLSSNAMNWVRQAPGEGLEWIGSMYTDGTTYYANWAKGRFTISRASSTTVDLKMTSLTAADTATYFCARGDIWGPGTLVTVSS
VL: QVLTQTASPVSAAVGGTVTISCQSSQSVYNNNWLAWFQQKPGQPPKRLIYGTSELASGVPSRFKGSGSGTQFTLTISGVQCDDAATYYCLGTYSSNIHVFGGGTEVVVK
notes: as for B1
B13: anti-apelin mAb C26 (antibody, V domains shown)
VH: QEQLEESGGGLVQPEGSLTLTCTASGFTLSNYWMSWVRQAPGKGLVWIGCIDIGSDDTYYASWAKGRFTISRTSSTTVTLQVTSLTAADTATYFCARSGGLWGPGTLVTVSS
VL: QVLTQTPSSTSAAVGGTVTINCQASQSVYNNNDLAWYQQKPGQPPKRLIYEASKLASGVPSRFSGSGSGTQFTLTISDLECDDAATYYCAGGWSGNFYVFGGGTEVVVK
notes: as for B1
B14: anti-apelin mAb C20 (antibody, V domains shown)
VH: B5 VH with S30N, M33I, Y57C, R81S, T94A, S99T
VL: B4 VL with A8P, P10S, H14A, N22S, Y31M, T71I, Q72H, D83A
notes: as for B1
B15: humanized anti-apelin mAb A11 (antibody, V domains shown)
VH: QSLEESGGGLVQPGGSLRLSCAVSGIDLYSNRMSWVRQAPGKGLEWVSSIGSSPWYASWAQGRFTISRDNSNTLYLQMNSLTAEDTAVYYCAKGGYRPGASVWGQGTLVTVSS
VL: DIQLTQSPSSLSASVGDRVTITCQSSQSIYDNNDLAWYQQKPGKTPKRLIYLASSLDSGVPSRFSGSGSGTDFTLTISSLQPEDVATYYCAGGYSGDIYTFGGGTKVEIK
notes: humanized from C8; tested as HEK293 supernatant
B16: humanized anti-apelin mAb A33 (antibody, V domains shown)
VH: B15 VH with S48G, L74V, V88T, Y90F
VL: AQVLTQSPSSLSASVGDRVTIACQSSQSVYDNNDLAWYQQKAGQTPKRLIYLASSLDSGVPSRFSGSGSGTEFTLTISSLQCEDVATYYCAGGYSGDIYTFGGGTEVVVE
notes: as for B15
B17: humanized anti-apelin mAb A41 (antibody, V domains shown)
VH: B15 VH with A22T, S48G, L74V, Q77K, L81P, V88T, Y90F
VL: B15 VL
notes: as for B15
B18: humanized anti-apelin mAb A43 (antibody, V domains shown)
VH: B15 VH with A22T, S48G, L74V, Q77K, L81P, V88T, Y90F
VL: B16 VL
notes: as for B15
B19: humanized anti-apelin mAb A21 (antibody, V domains shown)
VH: B15 VH with L74V, V88T, Y90F
VL: B15 VL
notes: as for B15

Target: T1, APL17-Biotin
Assay: ELISA, peptide on neutravidin plate, mAb 200 ng/ml, A405
Description: (§1) FIGS. 1A-1C show binding of anti-apelin mAbs to various biotinylated apelin peptides measured by ELISA. Biotinylated apelin peptides were immobilized on ELISA plates coated with neutravidin and purified recombinant rabbit anti-apelin mAbs were added for binding to the peptides on the plates. The binding was detected by adding a goat anti-rabbit IgG Fc-conjugated to alkaline phosphatase and PNPP substrate, and measured as the absorbance at 405 nm.
(§2) For the binding assay, neutravidin in carbonate coating buffer was coated on high binding ELISA plates at 1 μg/ml overnight. Peptides were added at 4 μg/ml after the plates were blocked with 1% BSA in TBS. After incubation of the plates at room temperature for 60 minutes, the plates were washed and then purified recombinant rabbit antibodies were added at 200 ng/ml. Following rabbit antibody binding to the peptides on the plates at room temperature for 90 minutes, goat anti-rabbit IgG Fc-conjugated to alkaline phosphatase was added, and antibody-antigen binding was detected by adding PNPP substrate and reading absorbance of ELISA plates at 405 nm. Each mAb was assayed in duplicate.

Binder	binding result
B1	binds
B2	no binding (tested: 200 ng/ml)
B3	no binding (tested: 200 ng/ml)
B4	binds
B5	no binding (tested: 200 ng/ml)
B6	binds
B7	binds
B8	binds

Target: T2, pyr-apelin-13-biotin …
Assay: as above
Description: as §1, §2

Binder	binding result
B9	no binding (tested: 200 ng/ml)
B10	no binding (tested: 200 ng/ml)
B11	binds
B12	no binding (tested: 200 ng/ml)
B13	no binding (tested: 200 ng/ml)

Target: T3, Biotin-APL17
Assay: as above
Description: as §1, §2

Binder	binding result
B10	binds
B11	binds
B1	binds
B2	no binding (tested: 200 ng/ml)
B3	no binding (tested: 200 ng/ml)
B4	binds
B5	no binding (tested: 200 ng/ml)
B6	binds
B7	binds
B8	binds

target: T4, apelin-13-biotin (…-biotin) (C-terminal biotin); assay: SPR (Biacore), apelin-13-biotin on streptavidin chip
T4 construct: also called APL13-Biotin
Description: (§3) Anti-apelin mAbs at four different concentrations (12.5 nM, 25 nM, 50 nM and 100 nM) were captured on the chip surface. The on- and off-rate for antibody-antigen binding were measured, curve fitted and calculated.

Binder	Kd [nM]
B2	0.00646
B3	0.00355
B4	0.0393
B5	14.3
B6	0.141
B14	0.202
B7	0.107

Target: T2, pyr-apelin-13-biotin …
Assay: SPR (Biacore), pyr-apelin-13-biotin on streptavidin chip
Description: as §3

Binder	Kd [pM]
B2	0.0482
B3	0.0555
B4	0.141
B5	6140
B6	6.49
B14	41.9
B7	0.155

target: T5, biotin-apelin-13 (biotin-…) (N-terminal biotin); assay: SPR (Biacore) with biotin-apelin-13, humanized IgG1 mAb in HEK293 supernatant
T5 construct: also called Biotin-APL13
Source text: The rabbit anti-apelin mAb C8 was humanized to reduce the potential of immunogenicity when used in human patients. The sequences of the variable regions of the heavy and light chains (VH and VL) were compared with the human antibody sequences in the Protein Data Bank (PDB) database and a homology model was built by applying SWISS-modeling. The CDRs in both the heavy and light chains of the rabbit mAb were grafted into human frameworks that have the highest possibility of maintaining the proper structure likely required for antigen binding. Backmutations from human residue to rabbit residue were designed when necessary. The sequences of the humanized VH and VL regions are shown in Table 11 and Table 12, respectively. The humanized VH and VL regions were fused to human IgG1 heavy chain and kappa light chain constant regions, respectively, to generate humanized mAbs. Constructs corresponding to the mAb sequences were used for transient transfection in HEK 293 cells and the supernatants were analyzed for the affinity of each humanized mAb for apelin.

Binder	Kd [pM]
B15	0.126
B16	0.0143
B17	0.067
B18	3.26
B19	0.00165

target: T5, biotin-apelin-13 (biotin-…); assay: SPR (Biacore), biotin-apelin-13 on streptavidin CM5 chip, mAb at 12.5-100 nM
Description: as §3

Binder	Kd [nM]
B9	51.3
B10	0.589
B12	1.06
B1	14.8
B13	0.119
B8	4.01
